{"source": "patent US20230014722A1", "biological_target": "cynomolgus PD-1 (Sino Biological), coated on plates (cynomolgus) (UniProt B0LAJ3)", "sequence (B0LAJ3 entry or part of it limits assumed)": "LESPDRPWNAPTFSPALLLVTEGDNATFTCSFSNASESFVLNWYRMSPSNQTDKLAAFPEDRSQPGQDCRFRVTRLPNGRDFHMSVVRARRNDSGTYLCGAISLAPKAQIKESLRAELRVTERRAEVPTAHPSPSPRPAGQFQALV", "assay": "ELISA, plates coated with cynomolgus PD-1 at 1 µg/ml", "data": [{"substance": "Keytruda (antibody)", "values": [{"measurement": "EC50", "result": 0.23, "unit": "nM"}]}]}
